Laboratory results as given in the supplement of paper PMC10567573.

B1: NR2F2 (parent)
chain: VAHVESLQEKSQCALEEYVRSQYP

Variants of: B1
Experiment: protein stability index of a GFP-peptide fusion (GPS, HEK-293T) (PSI 1-6); higher = more stable
Conditions: c terminus: a fixed tail appended
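Further: lentivirally expressed fusions sorted by FACS into six bins by GFP to DsRed ratio, PSI derived from sequencing read proportions per bin multiplied by bin number.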

Q: For VAHVESLQEKSQGALEEYVRSQYP [C13G], which protein stability index is on record?
A: 4

Q: For VAHVESLQEKSQHALEEYVRSQYP [C13H], which protein stability index is on record?
A: 4.4

Q: For VAHVESLQEKSQIALEEYVRSQYP [C13I], which protein stability index is on record?
A: 3.45

Q: Which protein stability index does the source give for VAHVESLQEKSQKALEEYVRSQYP [C13K] here?
A: 3.99

Q: Which protein stability index does the source give for VAHVESLQEKSQLALEEYVRSQYP [C13L] here?
A: 3.92

Q: For VAHVESLQEKSQMALEEYVRSQYP [C13M], which protein stability index is on record?
A: 3.98

Q: With VAHVESLQEKSQNALEEYVRSQYP [C13N] as the variant, how does the protein stability index read?
A: 4.47

Q: For VAHVESLQEKSQPALEEYVRSQYP [C13P], which protein stability index is on record?
A: 3.92

Q: For VAHVESLQEKSQQALEEYVRSQYP [C13Q], which protein stability index is on record?
A: 4.55

Q: With VAHVESLQEKSQRALEEYVRSQYP [C13R] as the variant, how does the protein stability index read?
A: 4.23

Q: With VAHVESLQEKSQSALEEYVRSQYP [C13S] as the variant, how does the protein stability index read?
A: 4.24

Q: For VAHVESLQEKSQTALEEYVRSQYP [C13T], which protein stability index is on record?
A: 4.28

Q: For VAHVESLQEKSQVALEEYVRSQYP [C13V], which protein stability index is on record?
A: 4.05

Q: For VAHVESLQEKSQWALEEYVRSQYP [C13W], which protein stability index is on record?
A: 3.54

Q: With VAHVESLQEKSQYALEEYVRSQYP [C13Y] as the variant, how does the protein stability index read?
A: 3.83

Q: For VAHVESLQEKSQCCLEEYVRSQYP [A14C], which protein stability index is on record?
A: 3.41

Q: For VAHVESLQEKSQCDLEEYVRSQYP [A14D], which protein stability index is on record?
A: 4.79

Q: Which protein stability index does the source give for VAHVESLQEKSQCELEEYVRSQYP [A14E] here?
A: 4.68

Q: For VAHVESLQEKSQCFLEEYVRSQYP [A14F], which protein stability index is on record?
A: 2.76

Q: For VAHVESLQEKSQCGLEEYVRSQYP [A14G], which protein stability index is on record?
A: 3.6

Q: Which protein stability index does the source give for VAHVESLQEKSQCHLEEYVRSQYP [A14H] here?
A: 4.08

Q: For VAHVESLQEKSQCILEEYVRSQYP [A14I], which protein stability index is on record?
A: 3.75

Q: Which protein stability index does the source give for VAHVESLQEKSQCKLEEYVRSQYP [A14K] here?
A: 3.88

Q: For VAHVESLQEKSQCLLEEYVRSQYP [A14L], which protein stability index is on record?
A: 2.88

Q: With VAHVESLQEKSQCMLEEYVRSQYP [A14M] as the variant, how does the protein stability index read?
A: 3.81

Q: With VAHVESLQEKSQCNLEEYVRSQYP [A14N] as the variant, how does the protein stability index read?
A: 4.22

Q: Which protein stability index does the source give for VAHVESLQEKSQCPLEEYVRSQYP [A14P] here?
A: 4.11

Q: For VAHVESLQEKSQCQLEEYVRSQYP [A14Q], which protein stability index is on record?
A: 3.57

Q: Which protein stability index does the source give for VAHVESLQEKSQCRLEEYVRSQYP [A14R] here?
A: 3.43

Q: For VAHVESLQEKSQCSLEEYVRSQYP [A14S], which protein stability index is on record?
A: 3.78

Q: With VAHVESLQEKSQCTLEEYVRSQYP [A14T] as the variant, how does the protein stability index read?
A: 3.92

Q: For VAHVESLQEKSQCVLEEYVRSQYP [A14V], which protein stability index is on record?
A: 3.83

Q: Which protein stability index does the source give for VAHVESLQEKSQCWLEEYVRSQYP [A14W] here?
A: 2.5

Q: For VAHVESLQEKSQCYLEEYVRSQYP [A14Y], which protein stability index is on record?
A: 3.19

Q: For VAHVESLQEKSQCAAEEYVRSQYP [L15A], which protein stability index is on record?
A: 4.75

Q: For VAHVESLQEKSQCACEEYVRSQYP [L15C], which protein stability index is on record?
A: 4.01

Q: With VAHVESLQEKSQCADEEYVRSQYP [L15D] as the variant, how does the protein stability index read?
A: 4.88

Q: Which protein stability index does the source give for VAHVESLQEKSQCAEEEYVRSQYP [L15E] here?
A: 5.03

Q: With VAHVESLQEKSQCAFEEYVRSQYP [L15F] as the variant, how does the protein stability index read?
A: 3.48

Q: With VAHVESLQEKSQCAGEEYVRSQYP [L15G] as the variant, how does the protein stability index read?
A: 4.89

Q: For VAHVESLQEKSQCAHEEYVRSQYP [L15H], which protein stability index is on record?
A: 4.35

Q: For VAHVESLQEKSQCAIEEYVRSQYP [L15I], which protein stability index is on record?
A: 3.89

Q: For VAHVESLQEKSQCAKEEYVRSQYP [L15K], which protein stability index is on record?
A: 4.3

Q: For VAHVESLQEKSQCAMEEYVRSQYP [L15M], which protein stability index is on record?
A: 3.84

Q: With VAHVESLQEKSQCANEEYVRSQYP [L15N] as the variant, how does the protein stability index read?
A: 4.42

Q: With VAHVESLQEKSQCAPEEYVRSQYP [L15P] as the variant, how does the protein stability index read?
A: 4.88

Q: For VAHVESLQEKSQCAQEEYVRSQYP [L15Q], which protein stability index is on record?
A: 4.73

Q: With VAHVESLQEKSQCAREEYVRSQYP [L15R] as the variant, how does the protein stability index read?
A: 4.37

Q: With VAHVESLQEKSQCASEEYVRSQYP [L15S] as the variant, how does the protein stability index read?
A: 4.33

Q: With VAHVESLQEKSQCATEEYVRSQYP [L15T] as the variant, how does the protein stability index read?
A: 4.91

Q: With VAHVESLQEKSQCAVEEYVRSQYP [L15V] as the variant, how does the protein stability index read?
A: 4.51

Q: For VAHVESLQEKSQCAWEEYVRSQYP [L15W], which protein stability index is on record?
A: 2.33

Q: Which protein stability index does the source give for VAHVESLQEKSQCAYEEYVRSQYP [L15Y] here?
A: 4.04

Q: Which protein stability index does the source give for VAHVESLQEKSQCALAEYVRSQYP [E16A] here?
A: 3.59

Q: With VAHVESLQEKSQCALCEYVRSQYP [E16C] as the variant, how does the protein stability index read?
A: 3.63

Q: With VAHVESLQEKSQCALDEYVRSQYP [E16D] as the variant, how does the protein stability index read?
A: 3.62

Q: For VAHVESLQEKSQCALFEYVRSQYP [E16F], which protein stability index is on record?
A: 2.35

Q: For VAHVESLQEKSQCALGEYVRSQYP [E16G], which protein stability index is on record?
A: 3.21

Q: For VAHVESLQEKSQCALHEYVRSQYP [E16H], which protein stability index is on record?
A: 3.16

Q: With VAHVESLQEKSQCALIEYVRSQYP [E16I] as the variant, how does the protein stability index read?
A: 3.7

Q: For VAHVESLQEKSQCALKEYVRSQYP [E16K], which protein stability index is on record?
A: 3.7

Q: With VAHVESLQEKSQCALLEYVRSQYP [E16L] as the variant, how does the protein stability index read?
A: 3.3

Q: For VAHVESLQEKSQCALMEYVRSQYP [E16M], which protein stability index is on record?
A: 2.89

Q: Which protein stability index does the source give for VAHVESLQEKSQCALNEYVRSQYP [E16N] here?
A: 3.63

Q: For VAHVESLQEKSQCALPEYVRSQYP [E16P], which protein stability index is on record?
A: 3.74

Q: Which protein stability index does the source give for VAHVESLQEKSQCALQEYVRSQYP [E16Q] here?
A: 3.68

Q: For VAHVESLQEKSQCALREYVRSQYP [E16R], which protein stability index is on record?
A: 3.65

Q: With VAHVESLQEKSQCALSEYVRSQYP [E16S] as the variant, how does the protein stability index read?
A: 3.37

Q: With VAHVESLQEKSQCALTEYVRSQYP [E16T] as the variant, how does the protein stability index read?
A: 3.29

Q: For VAHVESLQEKSQCALVEYVRSQYP [E16V], which protein stability index is on record?
A: 3.36

Q: For VAHVESLQEKSQCALWEYVRSQYP [E16W], which protein stability index is on record?
A: 2.23

Q: For VAHVESLQEKSQCALYEYVRSQYP [E16Y], which protein stability index is on record?
A: 2.11

Q: For VAHVESLQEKSQCALEAYVRSQYP [E17A], which protein stability index is on record?
A: 2.12

Q: With VAHVESLQEKSQCALECYVRSQYP [E17C] as the variant, how does the protein stability index read?
A: 2.89

Q: For VAHVESLQEKSQCALEDYVRSQYP [E17D], which protein stability index is on record?
A: 3.44

Q: Which protein stability index does the source give for VAHVESLQEKSQCALEFYVRSQYP [E17F] here?
A: 2.34

Q: With VAHVESLQEKSQCALEGYVRSQYP [E17G] as the variant, how does the protein stability index read?
A: 3.45

Q: For VAHVESLQEKSQCALEHYVRSQYP [E17H], which protein stability index is on record?
A: 2.76

Q: With VAHVESLQEKSQCALEIYVRSQYP [E17I] as the variant, how does the protein stability index read?
A: 2.3

Q: With VAHVESLQEKSQCALEKYVRSQYP [E17K] as the variant, how does the protein stability index read?
A: 3.81

Q: With VAHVESLQEKSQCALELYVRSQYP [E17L] as the variant, how does the protein stability index read?
A: 2.49

Q: For VAHVESLQEKSQCALEMYVRSQYP [E17M], which protein stability index is on record?
A: 2.58

Q: For VAHVESLQEKSQCALENYVRSQYP [E17N], which protein stability index is on record?
A: 3.08

Q: With VAHVESLQEKSQCALEPYVRSQYP [E17P] as the variant, how does the protein stability index read?
A: 3.5

Q: Which protein stability index does the source give for VAHVESLQEKSQCALEQYVRSQYP [E17Q] here?
A: 3.27

Q: For VAHVESLQEKSQCALERYVRSQYP [E17R], which protein stability index is on record?
A: 3.62

Q: With VAHVESLQEKSQCALESYVRSQYP [E17S] as the variant, how does the protein stability index read?
A: 3.36

Q: For VAHVESLQEKSQCALETYVRSQYP [E17T], which protein stability index is on record?
A: 3.62

Q: Which protein stability index does the source give for VAHVESLQEKSQCALEVYVRSQYP [E17V] here?
A: 2.26

Q: With VAHVESLQEKSQCALEWYVRSQYP [E17W] as the variant, how does the protein stability index read?
A: 2.11

Q: For VAHVESLQEKSQCALEYYVRSQYP [E17Y], which protein stability index is on record?
A: 2.11

Q: Which protein stability index does the source give for VAHVESLQEKSQCALEEAVRSQYP [Y18A] here?
A: 3.97

Q: With VAHVESLQEKSQCALEECVRSQYP [Y18C] as the variant, how does the protein stability index read?
A: 3.51

Q: With VAHVESLQEKSQCALEEDVRSQYP [Y18D] as the variant, how does the protein stability index read?
A: 5.05
